Like-named read-outs stand apart in the source and are kept apart here.
T1: 3HB6H from strain AD-3 (3-hydroxybenzoate 6-hydroxylase; AZF01_02545) (Martelella sp. AD-3, UniProt Z9T156WZO1)
T1 construct: full-length, N-terminal His6 tag (pET28a, EcoRI/HindIII), E. coli BL21(DE3), Ni-NTA; about 46 kDa by SDS-PAGE, 90 kDa by Native-PAGE (probable dimer); FAD-containing
T1 sequence (Z9T156WZO1 1-403): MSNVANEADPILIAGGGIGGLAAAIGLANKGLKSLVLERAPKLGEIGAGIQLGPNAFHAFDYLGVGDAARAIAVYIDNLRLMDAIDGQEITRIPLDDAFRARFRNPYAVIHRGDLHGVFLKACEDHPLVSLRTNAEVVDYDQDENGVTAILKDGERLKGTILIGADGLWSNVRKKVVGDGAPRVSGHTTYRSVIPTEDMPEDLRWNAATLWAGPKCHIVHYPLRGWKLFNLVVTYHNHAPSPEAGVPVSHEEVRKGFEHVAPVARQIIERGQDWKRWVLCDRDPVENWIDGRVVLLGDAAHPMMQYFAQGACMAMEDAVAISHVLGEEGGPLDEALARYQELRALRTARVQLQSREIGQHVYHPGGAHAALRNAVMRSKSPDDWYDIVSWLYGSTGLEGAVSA


Legend:
[1] = biological target: T1, 3HB6H from strain AD-3 (3-hydroxybenzoate 6-hydroxylase; AZF01_02545); assay: NADH oxidation at […] nm, Lineweaver-Burk; assay type: biochemical; conditions: 50 mM potassium phosphate pH 8.0, 30°C
purified protein [2] = substrate: NC(=O)C1=CN([C@@H]2O[C@H](COP(=O)(O)OP(=O)(O)OC[C@H]3O[C@@H](n4cnc5c(N)ncnc54)[C@H](O)[C@@H]3O)[C@@H](O)[C@H]2O)C=CC1; assay: purified protein; assay type: biochemical, Martelella sp. AD-3; conditions: 400 μM 3-hydroxybenzoate, 50 mM potassium phosphate pH 8.0, 30°C
purified protein [3] = substrate: O=C(O)c1cccc(O)c1; assay: purified protein; assay type: biochemical, Martelella sp. AD-3; conditions: 400 μM NADH, 50 mM potassium phosphate pH 8.0, 30°C

Row | Km ([1]; 400 μM 3-hydroxybenzoate, read-out: NADH / Km) [µM] | Km ([1]; 400 μM NADH, read-out: 3HB / Km) [µM] | Molecule | Km (purified protein [2]) [µM] | kcat (purified protein [2]) [s⁻¹] | kcat/Km (purified protein [2]) [M⁻¹ s⁻¹] | Km (purified protein [3]) [µM] | kcat (purified protein [3]) [s⁻¹] | kcat/Km (purified protein [3]) [M⁻¹ s⁻¹]
1 | 50 ± 9.7 | – | NC(=O)C1=CN([C@@H]2O[C@H](COP(=O)(O)OP(=O)(O)OC[C@H]3O[C@@H](n4cnc5c(N)ncnc54)[C@H](O)[C@@H]3O)[C@@H](O)[C@H]2O)C=CC1 [NADH] | – | – | – | – | – | –
2 | – | 28.6 ± 7.3 | O=C(O)c1cccc(O)c1 [3-hydroxybenzoate] | – | – | – | – | – | –
3 | – | – | 3HB6H from strain AD-3 (3-hydroxybenzoate 6-hydroxylase; AZF01_02545) (Martelella sp. AD-3) (protein, full-length, N-terminal His6 tag (pET28a, EcoRI/HindIII), E. coli BL21(DE3), Ni-NTA; about 46 kDa by SDS-PAGE, 90 kDa by Native-PAGE (probable dimer); FAD-containing) MSNVANEADPILIAGGGIGGLAAAIGLANKGLKSLVLERAPKLGEIGAGIQLGPNAFHAFDYLGVGDAARAIAVYIDNLRLMDAIDGQEITRIPLDDAFRARFRNPYAVIHRGDLHGVFLKACEDHPLVSLRTNAEVVDYDQDENGVTAILKDGERLKGTILIGADGLWSNVRKKVVGDGAPRVSGHTTYRSVIPTEDMPEDLRWNAATLWAGPKCHIVHYPLRGWKLFNLVVTYHNHAPSPEAGVPVSHEEVRKGFEHVAPVARQIIERGQDWKRWVLCDRDPVENWIDGRVVLLGDAAHPMMQYFAQGACMAMEDAVAISHVLGEEGGPLDEALARYQELRALRTARVQLQSREIGQHVYHPGGAHAALRNAVMRSKSPDDWYDIVSWLYGSTGLEGAVSA | 104.1 ± 18.2 | 7.8 ± 0.4 | 80000 | 72.6 ± 10.1 | 5.7 ± 0.2 | 80000
4 | – | – | 3HB6H from strain AD-3 (3-hydroxybenzoate 6-hydroxylase; AZF01_02545) (Martelella sp. AD-3; Q305P) (protein, full-length, N-terminal His6 tag (pET28a, EcoRI/HindIII), E. coli BL21(DE3), Ni-NTA; about 46 kDa by SDS-PAGE, 90 kDa by Native-PAGE (probable dimer); FAD-containing) MSNVANEADPILIAGGGIGGLAAAIGLANKGLKSLVLERAPKLGEIGAGIQLGPNAFHAFDYLGVGDAARAIAVYIDNLRLMDAIDGQEITRIPLDDAFRARFRNPYAVIHRGDLHGVFLKACEDHPLVSLRTNAEVVDYDQDENGVTAILKDGERLKGTILIGADGLWSNVRKKVVGDGAPRVSGHTTYRSVIPTEDMPEDLRWNAATLWAGPKCHIVHYPLRGWKLFNLVVTYHNHAPSPEAGVPVSHEEVRKGFEHVAPVARQIIERGQDWKRWVLCDRDPVENWIDGRVVLLGDAAHPMMPYFAQGACMAMEDAVAISHVLGEEGGPLDEALARYQELRALRTARVQLQSREIGQHVYHPGGAHAALRNAVMRSKSPDDWYDIVSWLYGSTGLEGAVSA | 95.9 ± 23.2 | 1.6 ± 0.1 | 20000 | 91.3 ± 13.5 | 1.6 ± 0.1 | 20000
5 | – | – | 3HB6H from strain AD-3 (3-hydroxybenzoate 6-hydroxylase; AZF01_02545) (Martelella sp. AD-3; Y306H) (protein, full-length, N-terminal His6 tag (pET28a, EcoRI/HindIII), E. coli BL21(DE3), Ni-NTA; about 46 kDa by SDS-PAGE, 90 kDa by Native-PAGE (probable dimer); FAD-containing) MSNVANEADPILIAGGGIGGLAAAIGLANKGLKSLVLERAPKLGEIGAGIQLGPNAFHAFDYLGVGDAARAIAVYIDNLRLMDAIDGQEITRIPLDDAFRARFRNPYAVIHRGDLHGVFLKACEDHPLVSLRTNAEVVDYDQDENGVTAILKDGERLKGTILIGADGLWSNVRKKVVGDGAPRVSGHTTYRSVIPTEDMPEDLRWNAATLWAGPKCHIVHYPLRGWKLFNLVVTYHNHAPSPEAGVPVSHEEVRKGFEHVAPVARQIIERGQDWKRWVLCDRDPVENWIDGRVVLLGDAAHPMMQHFAQGACMAMEDAVAISHVLGEEGGPLDEALARYQELRALRTARVQLQSREIGQHVYHPGGAHAALRNAVMRSKSPDDWYDIVSWLYGSTGLEGAVSA | 103.7 ± 13.6 | 1.6 ± 0.3 | – | 46.3 ± 6.9 | 1.5 ± 0.1 | 30000
6 | – | – | 3HB6H from strain AD-3 (3-hydroxybenzoate 6-hydroxylase; AZF01_02545) (Martelella sp. AD-3; Y221F) (protein, full-length, N-terminal His6 tag (pET28a, EcoRI/HindIII), E. coli BL21(DE3), Ni-NTA; about 46 kDa by SDS-PAGE, 90 kDa by Native-PAGE (probable dimer); FAD-containing) MSNVANEADPILIAGGGIGGLAAAIGLANKGLKSLVLERAPKLGEIGAGIQLGPNAFHAFDYLGVGDAARAIAVYIDNLRLMDAIDGQEITRIPLDDAFRARFRNPYAVIHRGDLHGVFLKACEDHPLVSLRTNAEVVDYDQDENGVTAILKDGERLKGTILIGADGLWSNVRKKVVGDGAPRVSGHTTYRSVIPTEDMPEDLRWNAATLWAGPKCHIVHFPLRGWKLFNLVVTYHNHAPSPEAGVPVSHEEVRKGFEHVAPVARQIIERGQDWKRWVLCDRDPVENWIDGRVVLLGDAAHPMMQYFAQGACMAMEDAVAISHVLGEEGGPLDEALARYQELRALRTARVQLQSREIGQHVYHPGGAHAALRNAVMRSKSPDDWYDIVSWLYGSTGLEGAVSA | 86.7 ± 10.8 | 1 ± 0.1 | 10000 | 164.2 ± 14.0 | 1.7 ± 0.1 | 10000
7 | – | – | 3HB6H from strain AD-3 (3-hydroxybenzoate 6-hydroxylase; AZF01_02545) (Martelella sp. AD-3; A308G) (protein, full-length, N-terminal His6 tag (pET28a, EcoRI/HindIII), E. coli BL21(DE3), Ni-NTA; about 46 kDa by SDS-PAGE, 90 kDa by Native-PAGE (probable dimer); FAD-containing) MSNVANEADPILIAGGGIGGLAAAIGLANKGLKSLVLERAPKLGEIGAGIQLGPNAFHAFDYLGVGDAARAIAVYIDNLRLMDAIDGQEITRIPLDDAFRARFRNPYAVIHRGDLHGVFLKACEDHPLVSLRTNAEVVDYDQDENGVTAILKDGERLKGTILIGADGLWSNVRKKVVGDGAPRVSGHTTYRSVIPTEDMPEDLRWNAATLWAGPKCHIVHYPLRGWKLFNLVVTYHNHAPSPEAGVPVSHEEVRKGFEHVAPVARQIIERGQDWKRWVLCDRDPVENWIDGRVVLLGDAAHPMMQYFGQGACMAMEDAVAISHVLGEEGGPLDEALARYQELRALRTARVQLQSREIGQHVYHPGGAHAALRNAVMRSKSPDDWYDIVSWLYGSTGLEGAVSA | 33.7 ± 6.4 | 2 ± 0.1 | 60000 | 38.0 ± 10.1 | 2.3 ± 0.1 | 60000

Reference: PMC6043778, “Purification and Initial Characterization of 3-Hydroxybenzoate 6-Hydroxylase From a Halophilic Martelella Strain AD-3” (Frontiers in Microbiology, 2018)
